The record followed here is article PMC13039401.

For this assay, the target named is MdtJ-His6 (Lawsonia intracellularis MdtJ, orphan, Cys-less). The assay is described as follows: size exclusion chromatography with densitometry of blot fractions. Conditions: parent: est. 36; read off a plot. (In general: SEC sorts molecules by how far they enter the pores of the column.)

In the case of “FtsH-His6 (E. coli FtsH, wild type) (from UniProt P0AAI3) S2K; K6A; N7L; Q23L”, the response stood at 11%.
